We go through 4 molecules from PMC12757481, “The dihydropyridine LA1011 modulates multiple Hsp90—co-chaperone interactions relevant to Alzheimer’s disease” (Cell Stress & Chaperones, 2025).

“And” between values parts separate entries of the source, which are not always exact repeats. Identical values can stand only once. Like-named read-outs stand apart in the source and are kept apart here.

The target of data set [1] is T1, Hsp90 (Saccharomyces cerevisiae, UniProt P02829).
T1 construct: made in house
Description: ITC, co-chaperone binding to Hsp90. More on the design: species or system yeast. Background: ITC needs no label: the signal is the heat of the interaction.
Description: (§1) The heat of interaction was measured on an ITC200 microcalorimeter (Microcal) under the same buffer conditions (20 mM Tris, pH 7.5, containing 5 mM NaCl), except for experiments using PP5, where we omitted EDTA and used 1 μM MnCl2. In experiments using nucleotide, we used 5 mM AMPPNP and 6 mM MgCl2. For experiments using Aha1 with AMPPNP the buffer contained 100 mM NaCl. Similarly, Sgt1 experiments also included 100 mM NaCl in the buffer. […] To assess co-chaperone binding to Hsp90 and Hsp90-LA1011 complex, we generally injected aliquots of co-chaperone at concentrations ranging from 200 to 400 μM into the microcell containing the Hsp90 or Hsp90-LA1011 complex at concentrations ranging from 20 to 30 μM of Hsp90 or Hsp90 in complex with 2 mM LA1011 at 30 °C. Heats of dilution were determined by diluting the injectant into the buffer. Data were fitted using a curve-fitting algorithm (Microcal Origin) either as a one-site binding event or as two independent binding sites as required.

A further data set has as its target T2, Hsp90-LA1011 (Saccharomyces cerevisiae, UniProt P02829).
T2 construct: made in house
Description: ITC, co-chaperone binding to Hsp90-LA1011 complex. The arrangement: species or system yeast.

In data set [2] the target is T1, Hsp90. As to the kind of experiment: Lactate-dehydrogenase and pyruvate-kinase-linked Hsp90 ATPase assay. Format: biochemical, yeast. Particulars: for effect of LA1011 on the co-chaperone directed regulation of Hsp90 ATPase activity: 2 μM Hsp90, 240 μM LA1011, co-chaperone 0.25 to 30 μM, normalized data compared with control lacking LA1011. The protocol: ATPase assays using 2 μM Hsp90 were conducted as previously described using the lactate-dehydrogenase and pyruvate-kinase-linked assay.[12] Briefly, 240 μM of LA1011 was used in assays as required. Co-chaperones were added to Hsp90 and Hsp90-LA1011 complex at a variety of concentrations ranging from 0.25 to 30 μM. Assays utilizing LA1011 were normalized by recalculating the activity for all data points so that the data points were converted to a percentage of the activity relative to the first data point, which lacked any addition of co-chaperone. The first data point was therefore 100% max Hsp90 activity. All assays were conducted at least in triplicate.
To assess the effect of LA1011 on the mechanistic action of co-chaperones, we used the lactate-dehydrogenase and pyruvate-kinase-linked Hsp90 ATPase assay. We first assessed the effect of each co-chaperone on Hsp90 ATPase activity and then compared its effect on a Hsp90-LA1011 complex.

The mark [3] stands for this setting: ITC 30 °C, co-chaperone and Hsp90 without LA1011, one-site fit, read-out: Kd.
[4] abbreviates: ITC 30 °C, Hsp90 in complex with 2 mM LA1011, one-site fit, read-out: Kd.

T2 sequence (P02829 whole entry): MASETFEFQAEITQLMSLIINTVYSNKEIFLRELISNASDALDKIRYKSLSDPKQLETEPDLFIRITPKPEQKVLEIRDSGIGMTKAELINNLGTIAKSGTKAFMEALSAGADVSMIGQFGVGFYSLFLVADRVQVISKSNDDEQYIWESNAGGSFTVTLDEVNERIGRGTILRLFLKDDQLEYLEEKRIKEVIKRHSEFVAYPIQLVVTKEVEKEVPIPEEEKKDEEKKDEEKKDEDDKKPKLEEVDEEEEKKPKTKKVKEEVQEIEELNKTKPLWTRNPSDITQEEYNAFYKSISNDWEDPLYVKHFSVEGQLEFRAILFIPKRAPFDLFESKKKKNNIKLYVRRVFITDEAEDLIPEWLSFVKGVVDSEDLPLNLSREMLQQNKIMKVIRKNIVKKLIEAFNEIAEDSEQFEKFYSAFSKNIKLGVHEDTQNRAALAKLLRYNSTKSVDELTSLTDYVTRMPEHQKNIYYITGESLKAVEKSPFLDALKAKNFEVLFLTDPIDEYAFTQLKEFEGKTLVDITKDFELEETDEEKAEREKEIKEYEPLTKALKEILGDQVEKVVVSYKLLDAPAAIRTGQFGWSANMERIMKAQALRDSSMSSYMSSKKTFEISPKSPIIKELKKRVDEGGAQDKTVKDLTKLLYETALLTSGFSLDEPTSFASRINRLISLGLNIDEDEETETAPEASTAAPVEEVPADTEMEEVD
T1 sequence (P02829 whole entry): as above
Description for Hsp90-LA1011: as §1

B1: Sgt1: yeast Sgt1 (amino acid residues 1-280), Hsp90 co-chaperone (protein, UniProt Q08446 1-280, looked up, fragment)
chain: MPVEKDLKTAYKALYDEKEPLKALHLYDEILKGSPTNLTALIFKAACLEKLYFGFSDWHSDATMENAKELLDKALMTAEGRGDRSKIGLVNFRYFVHFFNIKDYELAQSYFKKAKNLGYVDDTLPLWEDRLETKLNKKNKKQKDSTNKHTIKPVESIENRGDNNSSHSPISPLKIETAPQESPKFKIDWYQSSTSVTISLFTVNLPESKEQVNIYISPNDRRTLSISYQVPKSGSEFQYNAKLSHEVDPKAVSLKIFPKKLEITLSKIDSTQWKKLEEDI
One may read the Kd as the constant that tells how readily two partners part at equilibrium. Regarding B1, the Kd with Hsp90 [1] (setting [3]) was found to be 16200 nM; with Hsp90-LA1011 (setting [4]), 13600 nM. Further, the “effect of LA1011 on the co-chaperone directed regulation of Hsp90 ATPase activity” value (“effect of LA1011” for short) with Hsp90 [2] is reported as “unaffected by the presence of LA1011”.

B2: TPR domain of PP5: PP5-TPR domain (amino acid residues 1-177) (protein, UniProt P53041 1-177, looked up, fragment)
chain: MAMAEGERTECAEPPRDEPPADGALKRAEELKTQANDYFKAKDYENAIKFYSQAIELNPSNAIYYGNRSLAYLRTECYGYALGDATRAIELDKKYIKGYYRRAASNMALGKFRAALRDYETVVKVKPHDKDAKMKYQECNKIVKQKAFERAIAGDEHKRSVVDSLDIESMTIEDEYS
modifications: TPR domain
Regarding B2, in the data set with Hsp90 [2], the “effect of LA1011” value was “small but significant effect”.

B3: FKBP52: Hsp90 co-chaperone, TPR domain-containing protein (protein, UniProt Q02790 1-459, looked up)
Peptidyl-prolyl cis-trans …: MTAEEMKATESGAQSAPLPMEGVDISPKQDEGVLKVIKREGTGTEMPMIGDRVFVHYTGWLLDGTKFDSSLDRKDKFSFDLGKGEVIKAWDIAIATMKVGEVCHITCKPEYAYGSAGSPPKIPPNATLVFEVELFEFKGEDLTEEEDGGIIRRIQTRGEGYAKPNEGAIVEVALEGYYKDKLFDQRELRFEIGEGENLDLPYGLERAIQRMEKGEHSIVYLKPSYAFGSVGKEKFQIPPNAELKYELHLKSFEKAKESWEMNSEEKLEQSTIVKERGTVYFKEGKYKQALLQYKKIVSWLEYESSFSNEEAQKAQALRLASHLNLAMCHLKLQAFSAAIESCNKALELDSNNEKGLFRRGEAHLAVNDFELARADFQKVLQLYPNNKAAKTQLAVCQQRIRRQLAREKKLYANMFERLAEEENKAKAEASSGDHPTDTEMKEEQKSNTAGSQSQVETEA
Regarding B3, the Kd with Hsp90 [1] (ITC, Hsp90 without LA1011, two-site fit, value listed first in Table 2 and figures, read-out: Kd (two-site fit, first value listed)) is about 620 nM; with Hsp90 [1] (ITC, Hsp90 without LA1011, two-site fit, value listed second in Table 2 and figures, read-out: Kd (two-site fit, second value listed)), ~620 nM and 620 nM; with Hsp90-LA1011 (ITC, Hsp90 with 2 mM LA1011, two-site fit, value listed first in Table 2 and figures, read-out: Kd (two-site fit, first value listed)), 2800 nM; in the data set with Hsp90-LA1011 (ITC, Hsp90 with 2 mM LA1011, two-site fit, value listed second in Table 2 and figures, read-out: Kd (two-site fit, second value listed)), ~200 nM and 200 nM.

B4: CHIP: mouse CHIP, Hsp90-dependent E3 ubiquitin ligase co-chaperone, dimeric (protein, UniProt Q9WUD1 1-304, looked up)
E3 ubiquitin-protein ligase …: MKGKEEKEGGARLGTGGGGSPDKSPSAQELKEQGNRLFVGRKYPEAAACYGRAITRNPLVAVYYTNRALCYLKMQQPEQALADCRRALELDGQSVKAHFFLGQCQLEMESYDEAIANLQRAYSLAKEQRLNFGDDIPSALRIAKKKRWNSIEERRIHQESELHSYLTRLIAAERERELEECQRNHEGHEDDGHIRAQQACIEAKHDKYMADMDELFSQVDEKRKKRDIPDYLCGKISFELMREPCITPSGITYDRKDIEEHLQRVGHFDPVTRSPLTQEQLIPNLAMKEVIDAFISENGWVEDY
As to B4, the Kd with Hsp90 [1] (setting [3]) was 80 nM; with Hsp90-LA1011 (setting [4]), 1440 nM. The “effect on Hsp90 ATPase activity” value with Hsp90 [2] (2 μM Hsp90) is “inhibitor of the ATPase activity of Hsp90”. Also, in the data set with Hsp90 [2], the “effect of LA1011” value is recorded as “LA1011 affects CHIP’s ability to inhibit Hsp90 ATPase activity”.
